Assay results reported in US20230381112A1, “Compositions and Methods of Manufacturing Amphiphilic Block Copolymers that Form Nanoparticles in Situ” (Vaccuitech North America, Inc., priority 2020, published 2023).
“Also recorded” adds a separate entry of the source. No end group written: not given here.

Tests used:
[1] = test system: human monocyte cells (THP1); settings: 100 μM
Description: The cellular viability of retinal pigmented epithelial like cells (ARPE19) and monocyte like cells (THP1) were assessed following exposure to thermo-responsive polymer at physiologically relevant concentrations.
THP1 cells were grown in vitro in cell growth medium and exposed to thermo-responsive polymer micelle that was resuspended in cell growth medium at the concentrations specified up to 20 mg/mL. […] Cell viability was assessed using Promega CellTiter 96® Non-Radioactive Cell Proliferation Assay (MTT).

[2] = test system: NF-κB; test: Innate immune stimulation: NF-κB activation in THP1 NF-κB SEAP reporter monocytes; type: cell-based, human; settings: polymer up to 20 mg/mL in culture medium
[3] = DLS temperature sweep in PBS: hydrodynamic diameter (DH), transition temperature (Ttr), solubility/aggregation; type: physicochemical; settings: for Ttr: drug conjugate polymers; for Ttr / DH^20° C. / DH^37° C.: PBS at 0.5 mg/mL; for DH^20° C.: hydrodynamic diameter at 20° C.; for DH^37° C.: hydrodynamic diameter at 37° C.
Description: Temperature-responsive: Refers to changes in properties of a material with changes in temperature. A material may be described as temperature-responsive if the properties of the material change with respect to changes in temperature. Temperature-responsive polymers are polymers that experience a change in physical properties in response to temperature, such as a change in solubility with changes temperature, which may be described by a lower critical solution temperature (LCST) or upper critical solution temperature (UCST). Preferred embodiments of the temperature-responsive polymers described herein have reduced solubility at elevated temperatures, which may be described by an LCST or transition temperature (Ttr), if the LCST is unknown. Transitions temperatures described herein are experimentally determined by dynamic light scattering or by turbidity, wherein particle size (or light scattering intensity) or absorbance are plotted against temperature to produce a sigmoidal curve. The transition temperature as used herein is the temperature (value on the x-axis) at which the y-value is 50% the maximum value of the sigmoidal curve. Temperature-responsive monomers are monomers that form temperature-responsive polymers. […] Note: temperature-responsive monomers are defined herein as a type of hydrophobic monomer that is hydrophobic at certain temperatures.
Hydrodynamic behavior, thermo-responsiveness, and solubility under aqueous conditions. Prepared polymers and control materials were characterized for nanoparticle hydrodynamic diameter by dynamic light scattering (DLS), thermo-responsivity and overall solubility in PBS.

[4] = Concentration-dependent hydrodynamic behavior by DLS in PBS (0.8 to 200 mg/mL, 20-37° C.); settings: result in words; 5 mg/mL vs 200 mg/mL in PBS
[5] = polymers of temperature-responsive monomers; cited from earlier work
[6] = intravitreal injection; cited from earlier work

Row | Molecule | Ttr [3] [°C] | DH^20° C. [3] [nm] | DH^37° C. [3] [nm] | other results
1 | CCCCc1nc2c(N)nc3ccccc3c2n1CCCCN [Compound 34, 1-(4-aminobutyl)-2-butyl-1H-imidazo[4,5-c]quinolin-4-amine] | – | – | – | viability of THP1 cells [1]: 10-20%; NF-κB activation [2]: strong NF-κB response
2 | CN-p[(NIPMAM)f1-co-(BnMAM)f2]-b-p(HPMA)a-PEG4-Ova [Compound 291] | 28 | 7.4 | 40.4 | thermo-responsive and micelle-forming behavior ([3]; result in words, DLS in PBS): retains temperature responsiveness; concentration-responsive micellization [4]: retain concentration responsive micellization properties; also recorded: similarly demonstrated
3 | CN-p[(NIPMAM)f1-co-(BnMAM)f2]-b-p(HPMA)a-PEG4-Ova [Compound 292] | 32 | 6.1 | 36.5 | –
4 | CN-p[(NIPMAM)f1-co-(BnMAM)f2]-b-p(HPMA)a-PEG4-Ova [Compound 293] | 29 | 5.7 | 41.1 | –
5 | CN-p[(NIPMAM)f1-co-(BnMAM)f2]-b-p(HPMA)a-pip-diABZI [Compound 290] | 31 | 15.3 | 25.3 | –
6 | P(Val-Pro-Gly-Val-Gly)(SEQ ID NO: 3) (VPGVG; also: polymer of peptide-derived monomer) | – | – | – | LCST or Ttr [5]: 27 °C
7 | Ranibizumab: Fab molecule used for intravitreal injections | – | – | – | vitreal half-life [6]: 76.8 h
8 | Val-Pro-Gly-Val-Gly (SEQ ID NO: 3) derived polymethacrylate: polymethacrylate derived from the pentapeptide, Class IV of Table 1 (VPGVG; also: polymethacrylate backbone with pendant peptide) | – | – | – | LCST or Ttr [5]: 15-55 °C
